± gives the standard deviation.
Experiment: protein stability index of a GFP-peptide fusion (GPS, HEK-293T) (PSI 1-6); higher = more stable
[1] = treatment: DMSO, c terminus: a fixed tail appended
[2] = treatment: MLN4924 1 uM, 8 h, c terminus: a fixed tail appended
[3] = treatment: DMSO, c terminus: native
[4] = treatment: MLN4924 1 uM, 8 h, c terminus: native
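Further: 24-mer peptide tiles fused after GFP, lentivirally expressed, FACS-sorted into six equal bins by GFP/DsRed ratio, decoded by Illumina sequencing, PSI is the read-weighted mean bin number.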

Sequence | protein stability index [1] | protein stability index [2] | protein stability index [3] | protein stability index [4]
SMVVPLLSLHVKSLGASPTVAGIV [MFSD9] | 2.95 ± 0.36 | 2.4 ± 0.46 | – | –
GRTHSACDALRTLAEARRLFPGRV [RSAD1] | 2.99 ± 0.29 | 3.44 ± 0.29 | – | –
EKVSQELKEPLHKALQMLLSQPVT [BCL2L13] | 2.88 ± 0.26 | 3 ± 0.45 | – | –
LNVRGGKPDDITVLLSIVAEYTD [PPTC7] | – | – | 3.45 ± 0.95 | 2.5 ± 0.44
FKRWIYLNDQNLCIPASSSFVYGA [GAN] | 2.41 ± 0.37 | 2.47 ± 0.38 | – | –
QPSFPEILLESHMVMIRGNSGLKP [POMT2] | 2.79 ± 0.3 | 3.07 ± 0.21 | – | –
RPSTYYELLGVHPGASTEEVKRAF [DNAJC4] | 3.48 ± 0.21 | 3.86 ± 0.23 | – | –
RRFSSEDLEDPLGGLLSYDEGGIT [FBF1] | 4.57 ± 0.21 | 4.56 ± 0.16 | – | –
AGPELDEMLREVDLNGDGTVDFDE [CABP4] | 5.67 ± 0.23 | 5.36 ± 0.11 | – | –
SSYPVCVSKVVKGGSSGKGTTLRG [OAS1] | 4.11 ± 0.39 | 4.18 ± 0.19 | – | –
PETMTCRLSNNQRYLFLDGDSHYE [ZFYVE21] | 2.52 ± 0.45 | 2.8 ± 0.33 | – | –
LSMLLTLKCEMNQMSGEPLDKLNF [ACSBG2] | 2.83 ± 0.46 | 2.29 ± 0.16 | – | –
RRARINESLQELRLLLAGAEVQAK [HES6] | 2.62 ± 0.3 | 2.84 ± 0.77 | – | –
MRILAHGELVLATAISSFTRHVFT [TLE6] | 3.1 ± 0.61 | 2.76 ± 0.35 | – | –
EKEFMKGNQLISNNIKFKKSSILT [CLCN6] | 3.46 ± 0.17 | 3.48 ± 0.38 | – | –
SKPKTFQAYLDDCHRRYSCAHCRA [YPEL3] | 2.41 ± 0.55 | 3.04 ± 0.59 | – | –
DSQVSEEVKTRHSEKSQREDEEEE [CHGB] | 5.75 ± 0.099 | 5.49 ± 0.21 | – | –
VELLHNTSYTRQACLVSCFQQLMV [SCNN1D] | 2.39 ± 0.78 | 2.5 ± 0.94 | – | –
ELRRDSSESQLASTESDKPTTGRV [C18orf25] | 5.28 ± 0.38 | 5.39 ± 0.21 | – | –
KVLLSGATFLVTFGNSEKPETMTC [ZFYVE21] | 2.43 ± 0.27 | 2.23 ± 0.72 | – | –
RLAQGNPQQGFFSSFFTCNQKCQL [ATP23] | 2.49 ± 0.45 | 2.53 ± 0.23 | – | –
LPLTARWEYMHSPSENSKEAEILE [CPOX] | 4.94 ± 0.32 | 5.02 ± 0.17 | – | –
RSSFANQGEICLCTSRIFVQKSIY [ALDH8A1] | 2.03 ± 0.41 | 2.13 ± 0.24 | – | –

Sequence | protein stability index [1] | protein stability index [2] | protein stability index [3] | protein stability index [4]
ARYIDTHNRVSKEDEDIYKLRHDL [PLK2] | 3.75 ± 0.3 | 3.8 ± 0.13 | – | –
RKVLQAVHRGDGANPFQAYLDVDL [RTN2] | 3.21 ± 0.26 | 3.26 ± 0.19 | – | –
GDTSATESGDEVPVELYTAFQHTP [KMT2E] | 4.97 ± 0.18 | 5.04 ± 0.17 | – | –
PESVERLTGVSISQVNHKPLRTA [FLOT1] | – | – | 2.66 ± 0.69 | 3.11 ± 0.18
ARKRKNRRLKQAKEEAQAEIEQYR [ATP6V1G1] | 5.03 ± 0.38 | 5.13 ± 0.32 | – | –
VGEVPYWVLEPVLEGWRPDQLYRR [ELOA2] | 1.97 ± 0.33 | 2.32 ± 0.33 | – | –
EGEIATYRHLLEGEDCKLPPQPCA [KRT36] | 4.6 ± 0.26 | 4.26 ± 0.24 | – | –
TQIRTITEEIRDGKVISSREHVQS [KRT36] | 4.75 ± 0.088 | 4.86 ± 0.1 | – | –
KNTEVSSMECEKNLYWICNKPYK [CD69] | – | – | 2.97 ± 0.2 | 2.86 ± 0.61
FSVSSTSRRIYRCRNCINLQNEAQ [IQUB] | 2.02 ± 0.19 | 2.34 ± 0.34 | – | –
LPAQPNRKPGMSSTARRSRAASSQ [CHMP4C] | 4.88 ± 0.16 | 4.87 ± 0.16 | – | –
SVMVMREILDYIFSGQIRLNEDTI [GAN] | 2.53 ± 0.51 | 2.32 ± 0.64 | – | –
KKRRLPPVHIHPAFARQAAQEPSA [FOXJ1] | 3.87 ± 0.25 | 3.82 ± 0.36 | – | –
NDRDFLTRIFTEDRFAQDSEMKKC [PPEF2] | 4.61 ± 0.16 | 4.79 ± 0.21 | – | –
SCSLVLEHQPDNIKALFRKGKVLA [FKBP8] | 2.76 ± 0.15 | 2.68 ± 0.26 | – | –
LVTTHHLMVHGNERFIQYLASRNT [SNAP91] | 2.18 ± 0.17 | 2.07 ± 0.42 | – | –
MTPDIHELVENIKSVLKSDEEHME [FAM189A2] | 4.72 ± 0.24 | 4.39 ± 0.66 | – | –
QILPVLDFCKVFLISGVTLDNCVE [KLHL13] | 3.21 ± 0.41 | 2.49 ± 0.064 | – | –
VCSILLGTSTLLVWVGVIRYLTFF [MCOLN1] | 3.3 ± 0.42 | 3.02 ± 0.079 | – | –
SSLCYKQRIKSQERETEATRGRGG [MOG] | 5 ± 0.27 | 5.06 ± 0.32 | – | –
HGDYFRLLLPGIYTVSATAPGYDP [CPN1] | 2.78 ± 0.71 | 2.48 ± 0.48 | – | –
KKRKRQEKIDKLEQDMERRKADFK [ZC3H15] | 4.7 ± 0.4 | 4.77 ± 0.1 | – | –
QCMQPNNIMGIENICELAARMLFS [NR2F2] | 2.45 ± 0.68 | 2.49 ± 0.36 | – | –

Sequence | protein stability index [1] | protein stability index [2] | protein stability index [3] | protein stability index [4]
LEELTKLQNNCTSSITRQKKRLQE [TMEM120A] | 4.81 ± 0.3 | 4.76 ± 0.31 | – | –
VLRAGDREDITEPAICALRHLTSR [CTNNB1] | 3.39 ± 0.39 | 3.67 ± 0.18 | – | –
SFLKQKEQLEAEAQALRQELERQR [PBXIP1] | 4.43 ± 0.39 | 4.52 ± 0.088 | – | –
VCRARPRACSHLIRLMQRCWQGDP [RIPK4] | 2.21 ± 1.1 | 2.86 ± 0.35 | – | –
YSFRNPDVQSAIWRMLTGRRSLA [OR3A1] | – | – | 2.44 ± 0.51 | 2.65 ± 0.36
WGEMTLSLFSLLIAAAVYIMDTVG [SLC19A2] | 2.51 ± 0.44 | 2.46 ± 0.31 | – | –
YSNLLVRDFRPTDQEEIKTLERYM [TENT5C] | 3.08 ± 0.22 | 3.35 ± 0.36 | – | –
TRILKHSPESSRGQCGENLAWASY [GLIPR2] | 2.38 ± 0.44 | 2.38 ± 0.18 | – | –
NLAAMTPHDFIEHFLSKMPEAEEN [CCND1] | 4.49 ± 0.075 | 4.49 ± 0.04 | – | –
DTETFTWSQPITTGKAPSPRAAHA [KLHDC2] | 4.31 ± 0.082 | 4.41 ± 0.51 | – | –
KGERGEDSSEEKHLEEPGETQNAF [CHGB] | 5.61 ± 0.19 | 5.62 ± 0.13 | – | –
SSAPRDVQARMLSSTTILVQWKEP [PTPRD] | 2.83 ± 0.47 | 2.79 ± 0.15 | – | –
VSSAVSPSIIPQEDPSQQFLQQSL [INTS4] | 4.2 ± 0.24 | 4.41 ± 0.083 | – | –
GFIKKFVLCPECENPETDLHVNPK [EIF5] | 3.09 ± 0.38 | 3.29 ± 0.05 | – | –
SISDLSEHVFDLILELYNIDSHLL [PDS5B] | 2.49 ± 0.89 | 2.25 ± 0.81 | – | –
EEPSKYGVVVCEADTGRIHRFVEK [GMPPB] | 3.94 ± 0.32 | 3.99 ± 0.18 | – | –
AFLRRVKTCNPPDAGPMVVHCSAG [PTPRD] | 2.15 ± 0.068 | 2.18 ± 0.3 | – | –
SKQSPPMASSPIQPRKGGADWLGL [FBF1] | 3.23 ± 0.47 | 3.48 ± 0.42 | – | –
SRVTAFLDDLSQKLKPLGEAEREF [NLN] | 2.84 ± 0.07 | 3.12 ± 0.51 | – | –
EDLEWERYRGRGSEEYRAPRPQSE [CHGB] | 5.19 ± 0.38 | 5.33 ± 0.23 | – | –
IVAIIPYFITLGTEIAEQEGNQKG [KCNA1] | 2.87 ± 0.71 | 2.55 ± 0.48 | – | –
AAKLLNVDPDNVVLCLLAADEDDD [GADD45A] | 3.68 ± 0.16 | 3.94 ± 0.27 | – | –
ELIILYEKKGLHEKALQVLVDQSK [VPS39] | 2.26 ± 0.25 | 2.53 ± 0.22 | – | –

Sequence | protein stability index [1] | protein stability index [2] | protein stability index [3] | protein stability index [4]
SITHYRPVSASRSSLDLSYYPTSS [EMD] | 3 ± 0.26 | 3.23 ± 0.19 | – | –
EVANKDLTERKYKGDSTIRELKAK [SASS6] | 3.27 ± 0.39 | 3.27 ± 0.53 | – | –
EEDEQLRALVRQFGQQDWKFLASH [MYBL2] | 3.17 ± 0.36 | 3.46 ± 0.17 | – | –
FEFSVDSFQIVLDPMLDFYSDKNA [TENT5D] | 2.91 ± 0.93 | 2.52 ± 0.42 | – | –
VMSGVKCSGTELSLAHCRHDGEDV [LOXL2] | 4.95 ± 0.21 | 4.89 ± 0.24 | – | –
DGPCHKRRASICCTQLGSLSALKH [SCARA5] | 3.79 ± 0.11 | 3.65 ± 0.076 | – | –
GDKASPDQNASTHTPQSSVKTSVP [CLINT1] | 5.54 ± 0.19 | 5.38 ± 0.28 | – | –
VISLEKLNVGNERYVFEAVIRWIA [GAN] | 2.38 ± 0.38 | 2.09 ± 0.29 | – | –
TQSLPTASASKFPSSGPVTPQPTA [AUP1] | 4.85 ± 0.22 | 4.78 ± 0.16 | – | –
RRKIRELQLRYSLRILIGDPPHHD [BEX5] | 2.42 ± 0.42 | 2.07 ± 0.23 | – | –
PGIDRPGMLCSFRIPGAWSCAWSL [DCAF4] | 3.32 ± 0.45 | 2.96 ± 0.61 | – | –
ETQTQRGGEFQCGLEAASVYSDHT [RNF180] | 2.33 ± 0.16 | 2.2 ± 0.078 | – | –
QETAKEEDGSVELESQVQKDGVAD [C18orf25] | 5.55 ± 0.24 | 5.61 ± 0.34 | – | –
PIGKISKNKKKKLKKKQKRQAELL [SRPK2] | 4.37 ± 0.17 | – | – | –
WEAKQEKIKSEEIEITFSYWDGSG [FAM50A] | 2.59 ± 0.3 | 2.6 ± 0.35 | – | –
LPPPSAPSLQPSRKLSPTEPKNYG [SCAMP3] | 4.79 ± 0.16 | 4.86 ± 0.24 | – | –
SFSVLNWDQVSRLHEVLTEVVPIH [TENT5C] | 2.26 ± 0.28 | 2.3 ± 0.27 | – | –
DHLENVSKLVESGIQFMDEPEMAV [TRIM55] | 4.54 ± 0.45 | 4.75 ± 0.41 | – | –
LSKQAKFAYKDEYEKFKLYLTIIL [TMEM120A] | 2.61 ± 0.36 | 2.48 ± 0.54 | – | –
ELDGPKQIFFGRRKDMIAEKLAPS [ZNF396] | 3.62 ± 0.11 | 3.62 ± 0.27 | – | –
